From IntAct's records for PubMed 19696444

B1: Anosmin-1 (Homo sapiens), P23352 (parent)
chain: MVPGVPGAVLTLCLWLAASSGCLAAGPGAAAARRLDESLSAGSVQRARCASRCLSLQITRISAFFQHFQNNGSLVWCQNHKQCSKCLEPCKESGDLRKHQCQSFCEPLFPKKSYECLTSCEFLKYILLVKQGDCPAPEKASGFAAACVESCEVDNECSGVKKCCSNGCGHTCQVPKTLYKGVPLKPRKELRFTELQSGQLEVKWSSKFNISIEPVIYVVQRRWNYGIHPSEDDATHWQTVAQTTDERVQLTDIRPSRWYQFRVAAVNVHGTRGFTAPSKHFRSSKDPSAPPAPANLRLANSTVNSDGSVTVTIVWDLPEEPDIPVHHYKVFWSWMVSSKSLVPTKKKRRKTTDGFQNSVILEKLQPDCDYVVELQAITYWGQTRLKSAKVSLHFTSTHATNNKEQLVKTRKGGIQTQLPFQRRRPTRPLEVGAPFYQDGQLQVKVYWKKTEDPTVNRYHVRWFPEACAHNRTTGSEASSGMTHENYIILQDLSFSCKYKVTVQPIRPKSHSKAEAVFFTTPPCSALKGKSHKPVGCLGEAGHVLSKVLAKPENLSASFIVQDVNITGHFSWKMAKANLYQPMTGFQVTWAEVTTESRQNSLPNSIISQSQILPSDHYVLTVPNLRPSTLYRLEVQVLTPGGEGPATIKTFRTPELPPSSAHRSHLKHRHPHHYKPSPERY

Variants of: B1
Settings: with fgfr1_human FGFR1, P11362
Sequence of fgfr1_human FGFR1, P11362 (P11362 whole entry, looked up): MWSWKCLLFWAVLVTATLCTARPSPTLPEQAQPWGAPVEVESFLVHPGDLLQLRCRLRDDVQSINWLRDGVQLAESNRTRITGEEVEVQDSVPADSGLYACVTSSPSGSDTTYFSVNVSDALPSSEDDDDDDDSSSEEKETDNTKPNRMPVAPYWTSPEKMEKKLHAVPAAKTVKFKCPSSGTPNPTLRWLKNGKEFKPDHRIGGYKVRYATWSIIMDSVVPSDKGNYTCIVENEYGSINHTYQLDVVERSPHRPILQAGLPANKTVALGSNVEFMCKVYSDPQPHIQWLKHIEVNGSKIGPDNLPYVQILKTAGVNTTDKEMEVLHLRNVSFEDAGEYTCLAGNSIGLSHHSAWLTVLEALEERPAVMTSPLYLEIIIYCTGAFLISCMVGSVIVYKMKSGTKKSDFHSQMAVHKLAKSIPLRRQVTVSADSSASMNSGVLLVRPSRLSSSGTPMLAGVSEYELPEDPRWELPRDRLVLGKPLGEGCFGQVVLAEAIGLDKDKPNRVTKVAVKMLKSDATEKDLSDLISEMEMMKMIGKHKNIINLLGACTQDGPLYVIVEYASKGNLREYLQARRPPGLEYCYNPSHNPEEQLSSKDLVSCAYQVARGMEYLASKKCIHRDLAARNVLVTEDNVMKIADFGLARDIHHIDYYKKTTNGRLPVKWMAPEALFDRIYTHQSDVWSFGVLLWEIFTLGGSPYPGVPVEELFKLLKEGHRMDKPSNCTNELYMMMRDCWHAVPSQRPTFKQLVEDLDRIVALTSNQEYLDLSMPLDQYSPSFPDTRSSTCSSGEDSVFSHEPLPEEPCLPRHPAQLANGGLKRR

Question: How did the “effect of a mutation on the interaction” value turn out when N267K was run?
Answer: Its value is “disrupting interaction”.
